B1: Subtilisin-chymotrypsin inhibitor-2A, P01053 (parent)
chain: MSSVEKKPEGVNTGAGDRHNLKTEWPELVGKSVEEAKKVILQDKPEAQIIVLPVGTIVTMEYRIDRVRLFVDKLDNIAQVPRVG

Variants of: B1
Details: Hordeum vulgare, structure 2CI2, whole UniProt chain shown; for Tm / unfolding enthalpy (calorimetric): Thermal, DSC; for denaturant m value / denaturant midpoint (higher = more stable) / unfolding free energy: pH 6.25, 25 °C, GdnHCl, Fluorescence, MES 50 mM

S32G E34A E35A
Tm (pH 3, glycine-HCl 10 mM): 56.5 °C | unfolding enthalpy (calorimetric) (pH 3, glycine-HCl 10 mM): 55 kcal/mol | denaturant m value: 2.15 kcal/mol/M | denaturant midpoint (higher = more stable): 3.16 M | unfolding free energy: 6.79 kcal/mol

S32A E34A E35A
Tm (pH 3, glycine-HCl 10 mM): 56.2 °C | unfolding enthalpy (calorimetric) (pH 3, glycine-HCl 10 mM): 54 kcal/mol | denaturant m value: 2.18 kcal/mol/M | denaturant midpoint (higher = more stable): 3.14 M | unfolding free energy: 6.86 kcal/mol

S32A
Tm (pH 3, glycine-HCl 10 mM): 58 °C | unfolding enthalpy (calorimetric) (pH 3, glycine-HCl 10 mM): 53 kcal/mol | denaturant m value: 1.86 kcal/mol/M | denaturant midpoint (higher = more stable): 3.54 M | unfolding free energy: 6.58 kcal/mol

S32G
Tm (pH 3.5, formate 10 mM): 69 °C | unfolding enthalpy (calorimetric) (pH 3.5, formate 10 mM): 64 kcal/mol | denaturant m value: 2.1 kcal/mol/M | denaturant midpoint (higher = more stable): 3.59 M | unfolding free energy: 7.52 kcal/mol

E34A E35A
Tm (pH 3, glycine-HCl 10 mM): 60.1 °C | unfolding enthalpy (calorimetric) (pH 3, glycine-HCl 10 mM): 58 kcal/mol | denaturant m value: 2.11 kcal/mol/M | denaturant midpoint (higher = more stable): 3.61 M | unfolding free energy: 7.61 kcal/mol

E34Q
denaturant m value: 1.87 kcal/mol/M | denaturant midpoint (higher = more stable): 3.85 M | unfolding free energy: 7.03 kcal/mol

E34D
denaturant m value: 1.83 kcal/mol/M | denaturant midpoint (higher = more stable): 3.73 M | unfolding free energy: 6.84 kcal/mol

E34N
denaturant m value: 2.01 kcal/mol/M | denaturant midpoint (higher = more stable): 3.64 M | unfolding free energy: 7.29 kcal/mol

E35N
denaturant m value: 2.18 kcal/mol/M | denaturant midpoint (higher = more stable): 3.45 M | unfolding free energy: 7.53 kcal/mol

E35Q
denaturant m value: 1.84 kcal/mol/M | denaturant midpoint (higher = more stable): 3.76 M | unfolding free energy: 6.92 kcal/mol

E35D
denaturant m value: 2.2 kcal/mol/M | denaturant midpoint (higher = more stable): 3.62 M | unfolding free energy: 7.98 kcal/mol

— FireProtDB (doi:10.1093/protein/7.6.777)
